Data reported in article PMC11826091.

What was measured:
[1] = system: MtvA;MtvT (Pseudomonas aeruginosa PAD8 (plasmid pPAD8);Pseudomonas aeruginosa PAD8 (plasmid pPAD8)), ORF:f8ca6192+ORF:03226125; assay: EMSA; settings: pH 8.0, 25 min at room temperature
[2] = system: T1, MtvA (Pseudomonas aeruginosa PAD8 (plasmid pPAD8)), ORF:f8ca6192; assay: EMSA; settings: pH 8.0, 25 min at room temperature
T1 sequence: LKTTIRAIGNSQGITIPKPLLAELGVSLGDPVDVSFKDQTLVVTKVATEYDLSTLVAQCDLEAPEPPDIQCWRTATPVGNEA

Sequence	binding [1]	binding [2]
GTACGATCATCTTCACTTCCTCCAAATAGGAAGCTGAAGAATTTATGCAAATTTCATAATTTTATAACTAGCAAATGAGATAGATTTCGGTGAACCCGGACCCTTGCTAGGCTCGAAGAAACGTCCGAAAAGATCAGAGCA (double strand) [P-lasI]	no binding	no binding
CGGAAAACCTTAGACCCACTGAAGACCCGGCGTTCGCCGGGTTTTTTGTGTCTGCTCTTGTAAGCATTAACTTACACGGCGTGTGAGCCTAAGTAGATAAATGCCCGGGAGGTTTGCCAAAAACGCTCGGTGAATTTAAGTAACTTATTGAAATTAAAGGAATATATTTTTCTAAAATGGCTGCCGAAGAAGCTTCGCTGGGTTTTCTGGCAGGTTGCGGGAGCACTGGGAATCGCTAATATCACTCCTG (double strand) [P-rsmZ]	binds	binds
TTACTCGAGAAGTTTGGAATAACCAGAGATATGCTCGTCAACAACGAATGTTTGAACATATTTATCGGAACTTATTACATTCAGCGTAGCGTGCTGGGGAGTGATGATTTTTGGAAGGGCGTTGGTAATTACCACTCTCGCACGCCCGACAAAAACTACCGGTACAAACATCGTGTGTGGAACAGTCTCAAAGAAGTCCGGGGGCAGCAGGATCCATA (double strand) [P-icmP]	binds	binds
GCTGGGAAGGCTCGCGATGATGAGGGGACTGGCCACTGTAGCGGGCCCGGCGCAGATCATCTTGACGCACGGCAAGCTCCCGGCGGCTGGGTGTTGCCGTCGGTCCGGCGAGCGGAACTATTACAGCGTGTAAGCCAAGGCTTACAAACGGCGGTGGTTTTGGCTGCTTTCTCCCCCTCGCAGAGATGCGTAATCTTCAAACCGTCAGGACATTGCGCAGG (double strand) [P-rsmY]	binds	binds
TATGGATCCCGTATCTGCTCGGTTGGTTGATGGACAAAGCGCTTATCAAAAGGAAAACAACGCTTTGGCGCACGACTATACAGCAACGAAAGTCGAACGATAAGGCAATGATAGTCAGAAGTGACCCACCACTCAACACCAACCCACGCCCATATAGGTCTACGGTGACCTAAAACCTCGCTCGCCCTCCAAATAGGTCACCTGTGACCCTCGAGTAA (double strand) [P-dotD]	binds	binds
TTACTCGAGTGATGGCGATCGCCGCCGACGATGCTTCGTTTGATCACAGCTGCGTGGTCAACTTCAAATCGGCCGCCTGAGGGCGGCCCTACCCATAGATCCTGATTCCTCAACAAGAAAAAGCGACGTGTCCATTCGTTGACACTAAAGGTATTTTTGCGTATTTTTCGACATTATCATCTAATGAAAGTCGTTGGGGTTTGTTCGGTGGATCCATA (double strand) [P-icmL]	binds	binds
GCCGTCTCCGCGCGGGAGGAAAAGGCCACAGCGATGTGGCTTTTTTCTTAAAAGAAAAGTCTCTCAGTGACAAAAGCGATGCATAGCCCGGTGCTAGCATGCGCTGAGCTTTAGGAGGCGCCCCC (double strand) [P-exsC]	no binding	no binding
